Tested on: cGPS CHO-K1 cells
Test: Gene targeting (KI assay) of lacZ integration matrix in cGPS CHO-K1 cells, double G418/puromycin selection
Format: cell-based
Details: cGPS CHO-K1, pTV-DS-lacz integration matrix, G418 + puromycin selection
Procedure: Transfection: On D day, 0.5 μg of the pTV-DS-lacz (SEQ ID NO: 17) is transfected in cGPS CHO-K1 cells by using the PolyFect® reagent from Qiagen. One day after the transfection of the integration matrix (D+1), 1000 μg of the purified DPV15b/I-CreI N75/6× His (SEQ ID NO: 58) meganuclease protein is directly added into transfected cGPS CHO-K1 cells.
Selection: cGPS CHO-K1 cells are transfected with the protocol described above. 24 hours after transfection, the cells are washed and fresh medium supplemented with 0.6 mg/ml of G418 is added. After 10 days of G418 selection, the culture medium is replaced with complete medium supplemented with G418 at 0.6 mg/ml and puromycin at 10 μg/ml. 3 to 4 days later, double resistant clones are visualized through an inverted microscope. At this step, double resistant clones are either stained for lacz expression monitoring or picked up for amplification and molecular characterization. (see section 2.5)
X-gal staining: Culture medium is removed and LacZ-targeted double resistant cGPS CHO-K1 adherent cells are washed once with PBS. 5 ml of fixing buffer (100 mM phosphate buffer, 1 mM MgCl2, 0.5% (v/v) glutaraldehyde (Prolabo, 25% solution)) is added. After 10 min. of incubation on ice, fixing is replaced by 5 ml of washing buffer (100 mM phosphate buffer, 1 mM MgCl2, 0.02% (v/v) NP40). […]

B1: DPV15b/I-CreI N75/6× His: purified recombinant I-CreI N75 meganuclease with cell-penetrating peptide DPV15b fused at N-terminal and 6x histidine tag at C-terminal (protein)
chain: MGAYDLRRRERQSRLRRRERQSRNTKYNKEFLLYLAGFVDGDGSIIAQIKPNQSYKFKHQLSLTFQVTQKTQRRWFLDKLVDEIGVGYVRDRGSVSNYILSEIKPLHNFLTQLQPFLKLKQKQANLVLKIIEQLPSAKESPDKFLEVCTWVDQIAALNDSKTRKTTSETVRAVLDSLSEKKKSSPAAALEHHHHHH
For B1, the “number of double resistant cell colonies generated” value was “around 30” and the selection frequency was 3×10^−4.
